Test results taken from paper PMC6208366.

Columns and labels:
[1] = target: human full-length Hsp90β (human) (UniProt P08238); assay: ITC; conditions: domain or fragment
[2] = target: IANBD-labeled Hsp90 M362C (human); assay: stopped-flow fluorescence; IANBD-labeled Hsp90 M362C (1 µM) mixed with equal volumes of FKBP51, FK1-FK2, FK2-TPR or buffer, pseudo-first-order, 37 °C, 25 mM sodium phosphate/300 mM NaCl pH 7.2; rates as fluorescence increase at 20 s

Sequence of FK2-TPR (which lacks FK1) (Q13451 whole entry): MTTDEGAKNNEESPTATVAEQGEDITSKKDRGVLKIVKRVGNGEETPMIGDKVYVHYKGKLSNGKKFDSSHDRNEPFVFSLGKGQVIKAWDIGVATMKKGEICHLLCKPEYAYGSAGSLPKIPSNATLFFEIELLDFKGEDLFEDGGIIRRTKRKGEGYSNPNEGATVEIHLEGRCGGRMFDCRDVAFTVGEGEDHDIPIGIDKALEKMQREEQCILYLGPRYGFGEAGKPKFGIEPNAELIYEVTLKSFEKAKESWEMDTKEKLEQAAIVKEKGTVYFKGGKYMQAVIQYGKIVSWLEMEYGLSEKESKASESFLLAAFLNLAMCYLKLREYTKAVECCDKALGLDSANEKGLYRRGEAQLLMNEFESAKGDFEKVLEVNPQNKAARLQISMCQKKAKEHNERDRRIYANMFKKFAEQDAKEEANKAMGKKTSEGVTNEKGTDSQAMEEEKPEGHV
Sequence of human full-length Hsp90β (human) (P08238 whole entry, the tested form may be a part): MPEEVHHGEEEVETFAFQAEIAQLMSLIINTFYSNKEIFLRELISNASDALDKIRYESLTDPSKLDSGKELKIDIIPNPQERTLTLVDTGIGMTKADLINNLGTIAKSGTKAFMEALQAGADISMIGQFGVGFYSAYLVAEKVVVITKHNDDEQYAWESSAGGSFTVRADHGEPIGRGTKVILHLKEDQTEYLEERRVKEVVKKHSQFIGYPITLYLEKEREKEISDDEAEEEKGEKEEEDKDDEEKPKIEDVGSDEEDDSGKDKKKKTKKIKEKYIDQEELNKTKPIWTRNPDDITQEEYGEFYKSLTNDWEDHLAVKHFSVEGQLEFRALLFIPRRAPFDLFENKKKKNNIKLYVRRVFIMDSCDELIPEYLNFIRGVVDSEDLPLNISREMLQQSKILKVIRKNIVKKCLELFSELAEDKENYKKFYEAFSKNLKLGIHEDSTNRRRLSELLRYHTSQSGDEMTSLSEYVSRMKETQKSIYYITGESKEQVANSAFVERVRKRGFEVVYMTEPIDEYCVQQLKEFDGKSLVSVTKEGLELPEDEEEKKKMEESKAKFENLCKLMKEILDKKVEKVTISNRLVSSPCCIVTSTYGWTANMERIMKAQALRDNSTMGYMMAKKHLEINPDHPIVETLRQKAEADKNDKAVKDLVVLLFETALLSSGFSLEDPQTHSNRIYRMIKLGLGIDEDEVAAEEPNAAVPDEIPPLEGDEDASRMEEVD

| Substance | Kd [1] [nM] | ΔF (rate of Hsp90 binding, fluorescence increase) [2] [s⁻¹] |
| --- | --- | --- |
| FK2-TPR (which lacks FK1) (from UniProt Q13451 1-457) | 728 |  |
| FK2-TPR (which lacks FK1) (from UniProt Q13451 1-457) (domain or fragment) |  | 0.0027 |
